{"source": "paper PMC8968458", "binders": {"B1": {"name": "IκBα (endogenous), P25963 1-317 (natural protein)", "chain": "MFQAAERPQEWAMEGPRDGLKKERLLDDRHDSGLDSMKDEEYEQMVKELQEIRLEPQEVPRGSEPWKQQLTEDGDSFLHLAIIHEEKALTMEVIRQVKGDLAFLNFQNNLQQTPLHLAVITNQPEIAEALLGAGCDPELRDFRGNTPLHLACEQGCLASVGVLTQSCTTPHLHSILKATNYNGHTCLHLASIHGYLGIVELLVSLGADVNAQEPCNGRTALHLAVDLQNPDLVSLLLKCGADVNRVTYQGYSPYQLTWGRPSTRIQQQLGQLTLENLQMLPESEDEESYDTESEFTEFTEDELPYDDCVFGGQRLTL"}}, "biological_target": "NF-κB protein p65 (endogenous) (human (endogenous in PC-3)), Q04206", "sequence (Q04206 whole entry)": "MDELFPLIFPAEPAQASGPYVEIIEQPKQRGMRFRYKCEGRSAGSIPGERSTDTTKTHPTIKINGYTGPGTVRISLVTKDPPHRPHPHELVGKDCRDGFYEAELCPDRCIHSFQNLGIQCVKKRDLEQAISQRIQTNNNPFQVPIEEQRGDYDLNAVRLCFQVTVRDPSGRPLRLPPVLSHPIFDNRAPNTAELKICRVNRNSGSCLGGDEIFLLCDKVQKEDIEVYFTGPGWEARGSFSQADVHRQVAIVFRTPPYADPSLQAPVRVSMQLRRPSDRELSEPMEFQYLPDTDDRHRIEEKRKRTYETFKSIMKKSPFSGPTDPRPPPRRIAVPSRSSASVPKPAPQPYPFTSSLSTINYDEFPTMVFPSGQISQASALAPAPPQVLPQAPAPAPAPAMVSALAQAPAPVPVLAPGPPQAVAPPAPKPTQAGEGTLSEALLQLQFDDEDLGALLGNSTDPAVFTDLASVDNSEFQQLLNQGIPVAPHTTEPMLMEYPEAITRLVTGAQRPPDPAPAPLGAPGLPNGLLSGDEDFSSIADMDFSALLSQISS", "test": "immuno-depletion", "conditions": "remark: other sources report otherwise"}
{"binder": "B1", "values": [{"measurement": "percent of IκBα bound to p65", "value": 63, "unit": "%"}]}
